B1: MukB (wild type, MukB-His) (natural protein, Escherichia coli, UniProt P22523 1-1486, looked up)
chain: MIERGKFRSLTLINWNGFFARTFDLDELVTTLSGGNGAGKSTTMAAFVTALIPDLTLLHFRNTTEAGATSGSRDKGLHGKLKAGVCYSMLDTINSRHQRVVVGVRLQQVAGRDRKVDIKPFAIQGLPMSVQPTQLVTETLNERQARVLPLNELKDKLEAMEGVQFKQFNSITDYHSLMFDLGIIARRLRSASDRSKFYRLIEASLYGGISSAITRSLRDYLLPENSGVRKAFQDMEAALRENRMTLEAIRVTQSDRDLFKHLISEATNYVAADYMRHANERRVHLDKALEFRRELHTSRQQLAAEQYKHVDMARELAEHNGAEGDLEADYQAASDHLNLVQTALRQQEKIERYEADLDELQIRLEEQNEVVAEAIERQQENEARAEAAELEVDELKSQLADYQQALDVQQTRAIQYNQAIAALNRAKELCHLPDLTADCAAEWLETFQAKELEATEKMLSLEQKMSMAQTAHSQFEQAYQLVVAINGPLARNEAWDVARELLREGVDQRHLAEQVQPLRMRLSELEQRLREQQEAERLLADFCKRQGKNFDIDELEALHQELEARIASLSDSVSNAREERMALRQEQEQLQSRIQSLMQRAPVWLAAQNSLNQLSEQCGEEFTSSQDVTEYLQQLLEREREAIVERDEVGARKNAVDEEIERLSQPGGSEDQRLNALAERFGGVLLSEIYDDVSLEDAPYFSALYGPSRHAIVVPDLSQVTEHLEGLTDCPEDLYLIEGDPQSFDDSVFSVDELEKAVVVKIADRQWRYSRFPEVPLFGRAARESRIESLHAEREVLSERFATLSFDVQKTQRLHQAFSRFIGSHLAVAFESDPEAEIRQLNSRRVELERALSNHENDNQQQRIQFEQAKEGVTALNRILPRLNLLADDSLADRVDEIRERLDEAQEAARFVQQFGNQLAKLEPIVSVLQSDPEQFEQLKEDYAYSQQMQRDARQQAFALTEVVQRRAHFSYSDSAEMLSGNSDLNEKLRERLEQAEAERTRAREALRGHAAQLSQYNQVLASLKSSYDTKKELLNDLQRELQDIGVRADSGAEERARIRRDELHAQLSNNRSRRNQLEKALTFCEAEMDNLTRKLRKLERDYFEMREQVVTAKAGWCAVMRMVKDNGVERRLHRRELAYLSADDLRSMSDKALGALRLAVADNEHLRDVLRMSEDPKRPERKIQFFVAVYQHLRERIRQDIIRTDDPVEAIEQMEIELSRLTEELTSREQKLAISSRSVANIIRKTIQREQNRIRMLNQGLQNVSFGQVNSVRLNVNVRETHAMLLDVLSEQHEQHQDLFNSNRLTFSEALAKLYQRLNPQIDMGQRTPQTIGEELLDYRNYLEMEVEVNRGSDGWLRAESGALSTGEAIGTGMSILVMVVQSWEDESRRLRGKDISPCRLLFLDEAARLDARSIATLFELCERLQMQLIIAAPENISPEKGTTYKLVRKVFQNTEHVHVVGLRGFAPQLPETLPGTDEAPSQAS
notes: MukB, the SMC protein of Escherichia coli MukBEF; wild type; The end of the tag is read from the printed name 'MukB-His'; The same construct was used with co-purified AcpP or depleted of AcpP by an extended salt gradient on heparin; also called WT MukB; AcpP-depleted MukB; source: E. coli C3013I (NEB), pET vector, purified (TALON, HiTrap Heparin, Superdex 200); not shown: His tag, C-terminal, kept

The target in data set [1] is MukB^N (MukB Neck) (Escherichia coli). As to the kind of experiment: native MS; MukB^N or MukB^HN with co-purified AcpP; 200 mM ammonium acetate pH 8.0.
In data set [2] the target is B1.
The target in data set [3] is MukB^KK (K1114E and K1125E) (Escherichia coli) (UniProt P22523).
The target in data set [4] is T1, MukB^KRK (K1114E, R1122E and K1125E) (Escherichia coli, UniProt P22523 1-1486, K1114E | R1122E | K1125E).
T1 construct: E. coli MukB, triple charge-reversed mutant; source: E. coli FL01 (mukB 3xFLAG C3013I), purified (TALON, HiTrap Heparin, Superdex 200); not shown: His tag, C-terminal, kept
T1 sequence (looked up): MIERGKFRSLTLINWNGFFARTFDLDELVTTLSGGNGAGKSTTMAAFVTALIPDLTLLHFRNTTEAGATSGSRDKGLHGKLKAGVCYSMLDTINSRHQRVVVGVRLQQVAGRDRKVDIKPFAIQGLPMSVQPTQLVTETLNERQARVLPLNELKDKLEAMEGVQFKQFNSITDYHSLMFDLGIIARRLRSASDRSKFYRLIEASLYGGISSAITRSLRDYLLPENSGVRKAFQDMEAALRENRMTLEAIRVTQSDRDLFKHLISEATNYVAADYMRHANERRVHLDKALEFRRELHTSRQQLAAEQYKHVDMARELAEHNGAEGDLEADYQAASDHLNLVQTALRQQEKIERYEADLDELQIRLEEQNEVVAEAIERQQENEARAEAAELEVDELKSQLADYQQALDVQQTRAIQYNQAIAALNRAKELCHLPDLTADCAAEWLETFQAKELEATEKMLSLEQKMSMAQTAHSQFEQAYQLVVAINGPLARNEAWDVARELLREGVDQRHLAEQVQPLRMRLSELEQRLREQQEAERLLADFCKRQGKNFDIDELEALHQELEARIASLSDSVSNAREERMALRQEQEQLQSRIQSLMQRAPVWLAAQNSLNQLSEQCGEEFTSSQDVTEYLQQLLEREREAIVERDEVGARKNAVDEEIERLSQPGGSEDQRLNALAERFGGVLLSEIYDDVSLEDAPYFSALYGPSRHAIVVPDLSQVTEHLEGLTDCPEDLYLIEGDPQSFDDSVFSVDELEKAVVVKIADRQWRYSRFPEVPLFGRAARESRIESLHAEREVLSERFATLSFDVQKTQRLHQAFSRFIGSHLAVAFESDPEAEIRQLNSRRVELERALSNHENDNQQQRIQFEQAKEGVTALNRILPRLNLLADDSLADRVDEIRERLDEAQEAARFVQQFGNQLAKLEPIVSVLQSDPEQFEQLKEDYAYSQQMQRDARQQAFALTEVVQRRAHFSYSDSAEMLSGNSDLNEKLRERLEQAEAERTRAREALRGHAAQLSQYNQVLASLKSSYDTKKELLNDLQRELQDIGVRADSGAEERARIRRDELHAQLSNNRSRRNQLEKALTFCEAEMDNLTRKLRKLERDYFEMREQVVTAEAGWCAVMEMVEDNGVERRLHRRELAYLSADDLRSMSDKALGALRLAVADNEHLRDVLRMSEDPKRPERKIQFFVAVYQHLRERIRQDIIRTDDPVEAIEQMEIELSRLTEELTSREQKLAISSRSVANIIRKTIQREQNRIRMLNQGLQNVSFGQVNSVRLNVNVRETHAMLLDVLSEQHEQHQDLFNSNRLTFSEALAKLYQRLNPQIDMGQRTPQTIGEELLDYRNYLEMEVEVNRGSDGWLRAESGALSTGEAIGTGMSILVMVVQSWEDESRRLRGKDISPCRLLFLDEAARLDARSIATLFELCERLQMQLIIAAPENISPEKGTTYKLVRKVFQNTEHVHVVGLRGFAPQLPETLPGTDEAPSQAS

For data set [5], the target named is MukB (wild type, MukB-His) (Escherichia coli) (UniProt P22523).
The target in data set [6] is MukB^HN (MukB Head-Neck) (Escherichia coli). As to the kind of experiment: native MS; MukB^N or MukB^HN with co-purified AcpP; 200 mM ammonium acetate pH 8.0.
Data set [7] deals with the molecule itself. As to the kind of experiment: native MS; mixtures of MukB, MukE, MukF and AcpP at various concentrations of MukB; 200 mM ammonium acetate pH 8.0.

For the molecule MukB^N (MukB Neck) (domain or fragment), in data set [1], the stoichiometry N – broadly, the number of molecules, sites or subunits per partner or assembly – came out at 2.
Turning to “Acyl Carrier Protein (AcpP), recombinant (from UniProt P0A6A8 1-78) (natural protein)”, the ATPase activity of AcpP-depleted MukB with MukF, without and with added recombinant AcpP (ATP molecules/MukB2/min) in data set [2] worked out at 29. In data set [3], this molecule displayed an ATPase activity with MukEF against increasing AcpP (up to 50 μM) (% of WT ATPase activity) of 60. The molecule further gave an ATPase activity with MukEF against increasing AcpP (up to 100 times excess, 50 μM) (ATP molecules/MukB2/min) in data set [4] of 7.6.
In data set [5], “Acyl Carrier Protein (AcpP), native, co-purified from the E. coli host (from UniProt P0A6A8 1-78) (natural protein)” returned an ATPase activity of MukBF co-purified with AcpP (ATP molecules/MukB2/min) of 27.2. The stoichiometry N in data set [6] and in data set [1] was 1 in each case.
For B1, in data set [7], the binding result is given as “binds”.

The record behind these values is publication PMC8602292, “Acyl carrier protein promotes MukBEF action in Escherichia coli chromosome organization-segregation” (Nature Communications, 2021).
